Common to all, as to experiment: FRET or BRET; BRET in living HEK 293 cells; eYFP-tagged receptor and Rluc-ß-arrestin co-transfected at a ratio of 4:1; Hanks' balanced salt solution; coelenterazine 2.5 uM for 10 min at 37 °C, then ghrelin for 5 min; concentration response curves for ghrelin; emissions at 535 and 475 nm
The target of assay [1] is GHSR1a-Total (Ser349, Thr350, Ser362, Ser363 and Thr366 substituted by Ala) fused at its C terminus to eYFP (UniProt Q92847).
For assay [2], the target named is GHSR1a-TM (triple mutant of Ser362, Ser363 and Thr366 to Ala) fused at its C terminus to eYFP (UniProt Q92847).
Chain of GHSR1a-TM (triple mutant of Ser362, Ser363 and Thr366 to Ala) fused at its C terminus to eYFP (Q92847 other isoform, or with tags, fused parts or gaps, change not shown): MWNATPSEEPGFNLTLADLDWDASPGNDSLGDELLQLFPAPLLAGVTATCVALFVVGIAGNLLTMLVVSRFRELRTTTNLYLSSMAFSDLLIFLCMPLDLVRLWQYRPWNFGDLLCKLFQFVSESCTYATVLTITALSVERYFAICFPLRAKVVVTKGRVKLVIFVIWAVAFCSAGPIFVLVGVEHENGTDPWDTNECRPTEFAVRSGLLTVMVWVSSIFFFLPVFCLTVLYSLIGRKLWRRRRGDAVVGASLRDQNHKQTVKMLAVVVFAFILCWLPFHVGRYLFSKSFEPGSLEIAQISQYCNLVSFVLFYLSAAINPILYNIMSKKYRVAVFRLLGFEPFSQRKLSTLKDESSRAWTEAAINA
In assay [3] the target is T1, GHSR1a-WT fused at its C terminus to enhanced yellow fluorescent protein (eYFP) (UniProt Q92847 1-366).
T1 construct: amplified by PCR with primers that removed the stop codon, subcloned upstream of full-length eYFP in pcDNA3.1; Phosphorylated in cells after ghrelin at Ser349, Thr350, Ser362, Ser363 and Thr366 (mass spectrometry on the EGFP-tagged receptor); also called YFP-GHSR1a-WT; YFP tagged-GHSR1a-WT; source: HEK 293, transiently co-transfected (Lipofectamine 2000), in living cells; not shown: eYFP, …
T1 sequence (Q92847 whole entry, the tested form may be a part): as the sequence (Q92847 other isoform, or with tags, fused parts or gaps, change not shown) above, with A362S, A363S, A366T counted along it
To be noted: partners not purified.

Assay [4] deals with T2, GHSR1a-DM (double mutant Thr350Ala, Ser349Ala) fused at its C terminus to eYFP (UniProt Q92847 1-366, Thr350Ala | Ser349Ala).
T2 construct: also called YFP-GHSR1a-DM; source: HEK 293, transiently co-transfected (Lipofectamine 2000), in living cells; not shown: eYFP, C-terminal, kept
T2 sequence (Q92847 whole entry S349A/T350A, the tested form may be a part): as the sequence (Q92847 other isoform, or with tags, fused parts or gaps, change not shown) above, with S349A, T350A, A362S, A363S, A366T counted along it
The note with it: partners not purified.

Chain of GHSR1a-Total (Ser349, Thr350, Ser362, Ser363 and Thr366 substituted by Ala) fused at its C terminus to eYFP (Q92847 other isoform, or with tags, fused parts or gaps): as the sequence (Q92847 other isoform, or with tags, fused parts or gaps, change not shown) above, with S349A, T350A counted along it

“ß-arrestin 2 tagged with Rluc at its C-terminus (from UniProt P32121 1-409) (natural protein)”: the efficacy of recruitment, percent of GHSR1a-WT response (BRET) (% of GHSR1a-WT response) in assay [1] was 18; in assay [2], 24.6. The values for the pEC50 of ghrelin for ß-arrestin 2 recruitment (BRET) in assay [1] and in assay [2] were 6.04 and 6.97, respectively.

B1: Renilla luciferase-tagged ß-arrestin 1 (natural protein, UniProt P49407 1-418, looked up)
chain: MGDKGTRVFKKASPNGKLTVYLGKRDFVDHIDLVDPVDGVVLVDPEYLKERRVYVTLTCAFRYGREDLDVLGLTFRKDLFVANVQSFPPAPEDKKPLTRLQERLIKKLGEHAYPFTFEIPPNLPCSVTLQPGPEDTGKACGVDYEVKAFCAENLEEKIHKRNSVRLVIRKVQYAPERPGPQPTAETTRQFLMSDKPLHLEASLDKEIYYHGEPISVNVHVTNNTNKTVKKIKISVRQYADICLFNTAQYKCPVAMEEADDTVAPSSTFCKVYTLTPFLANNREKRGLALDGKLKHEDTNLASSTLLREGANREILGIIVSYKVKVKLVVSRGGLLGDLASSDVAVELPFTLMHPKPKEEPPHREVPENETPVDTNLIELDTNDDDIVFEDFARQRLKGMKDDKEEEEDGTGSPQLNNR
notes: plasmid provided by Prof; Mark Scott (Institut Cochin, Paris); also called Rluc-ß-arrestin 1; source: HEK 293, transiently co-transfected (Lipofectamine 2000), in living cells
In the case of B1, the “pEC50 of ghrelin for ß-arrestin 1 recruitment (BRET)” value in assay [3] was found to be 7.54; in assay [4], 7.1; in assay [1], 6.01; in assay [2] it was 7.13. The figures for the efficacy of recruitment, percent of GHSR1a-WT response (BRET) (% of GHSR1a-WT response) in assay [1] and in assay [2] were 31.8 and 36.8, respectively.
